# US20190185557 (published 2019)
# Substitutions are numbered along the chain they refer to.
# B1: IL6R-BP507/IL6R-L (antibody)
# chain 1: QVQLQESGPGLVKPSETLSLTCAVSGHSISHDHAWSWVRQPPGEGLEWIGFISYSGITNYNPSLQGRVTISRDNSKNTLYLQMNSLRAEDTAVYYCARSLARTTAMDYWGEGTLVTVSSASTKGPSVFPLAPSSKSTSGGTAALGCLVKDYFPEPVTVSWNSGALTSGVHTFPAVLQSSGLYSLSSVVTVPSSSLGTQTYICNVNHKPSNTKVDKKVEPKSCDKTHTCPPCPAPDLLGDDSVFLFPPKPKDTLMISRTPEVTCVVIDVAEEDGPVKFNWYVDGVEVHNAKTKPREEQYNSTYRVVSVLTVLHQDWLNGKEYKCKVSNKALPRPIEKTISKAKGQPREPQVYTLPPSRDELTKNQVSLTCLVKGFYPSDIAVEWESNGQPENNYKTTPPVLDSDGSFFLYSKLTVDKSRWQQGNVFSCSVMHEALHNHYTQESLSLSP
# chain 2: not shown
# B2: IL6R-BP445/IL6R-L (antibody)
# chain 1: B1 chain 1 with P274E
# chain 2: not shown
# B3: IL6R-BP490/IL6R-L (antibody)
# chain 1: B1 chain 1 with D235E, P274E
# chain 2: not shown
# B4: IL6R-BP480/IL6R-L (antibody)
# chain 1: B1 chain 1 with I266V, V268L, A269S, E271D, P274E, R332A
# chain 2: not shown
# B5: IL6R-BP506/IL6R-L (antibody)
# chain 1: B1 chain 1 with Y298D
# chain 2: not shown
# Key:
# FcγRIIaH = target: T1, FcγRIIaH (human, UniProt P12318); assay: SPR
# T1 chain: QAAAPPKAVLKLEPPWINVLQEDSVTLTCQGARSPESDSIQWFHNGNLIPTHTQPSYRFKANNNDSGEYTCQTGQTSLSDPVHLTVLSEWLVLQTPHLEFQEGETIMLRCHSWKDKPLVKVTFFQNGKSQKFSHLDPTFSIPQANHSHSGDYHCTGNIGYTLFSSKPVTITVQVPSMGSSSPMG
# FcγRIa = target: T2, FcγRIa (human, UniProt P12314); assay: SPR
# T2 chain: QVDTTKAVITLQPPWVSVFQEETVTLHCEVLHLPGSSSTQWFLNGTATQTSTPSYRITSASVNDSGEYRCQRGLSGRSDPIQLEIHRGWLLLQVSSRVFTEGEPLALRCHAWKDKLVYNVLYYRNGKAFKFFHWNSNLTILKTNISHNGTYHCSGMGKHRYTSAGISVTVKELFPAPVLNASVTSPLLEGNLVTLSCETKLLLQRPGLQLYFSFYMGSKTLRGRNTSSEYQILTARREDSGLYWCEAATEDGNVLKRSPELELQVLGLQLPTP
binder,measurement,setting,value
B1,Kd,FcγRIIaH,1800 nM
B2,Kd,FcγRIIaH,1500 nM
B3,Kd,FcγRIIaH,2400 nM
B4,Kd,FcγRIa,13 nM
B5,Kd,FcγRIIaH,2500 nM
